Ends that are not written are not given here.

One may read the Kd as the equilibrium constant for the complex coming apart. Low values mean higher affinity, high ones lower affinity.

This assay deals with T1, GST-IgFLNa21 (amino acids 2236–2329) (human, UniProt P21333 2236-2329).
T1 sequence (looked up): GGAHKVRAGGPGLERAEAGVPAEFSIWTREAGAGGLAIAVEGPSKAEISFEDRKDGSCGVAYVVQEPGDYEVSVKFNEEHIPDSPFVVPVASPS
The experiment in a line: pull-down.

B1: recombinant His-tagged integrin β7 cytoplasmic tail model protein (domain or fragment, UniProt P26010 747-798, looked up)
chain: RLSVEIYDRREYSRFEKEQQQLNWKQDSNPLYKSAITTTINPRFQEADSPTL
modifications: also: His-tagged, tag place not given here
B1: the Kd was found to be 700 ± 100 nM.

The values are drawn from paper PMC1948075 (The EMBO Journal, 2007).
